Values of other authors in paper PMC4860049.

Biological target: CHMP5 (Homo sapiens) (UniProt Q9NZZ3)
UniProt Q9NZZ3, sequence (Q9NZZ3 whole entry): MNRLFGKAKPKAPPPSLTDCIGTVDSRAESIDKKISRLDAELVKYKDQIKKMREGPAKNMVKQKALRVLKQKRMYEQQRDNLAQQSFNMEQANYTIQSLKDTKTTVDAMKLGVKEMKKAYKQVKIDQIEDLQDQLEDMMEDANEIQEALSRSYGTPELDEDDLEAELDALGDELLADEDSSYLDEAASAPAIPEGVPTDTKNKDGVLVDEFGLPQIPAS

## LIP5 MIT2 (from UniProt Q9NP79)
  Kd: 3 nM
